The test addresses T1, BRIL-KOR crystallization construct (human kappa-opioid receptor, residues 1-53 replaced by BRIL, C-terminal … (Homo sapiens, I135L | S324C)).
T1 chain: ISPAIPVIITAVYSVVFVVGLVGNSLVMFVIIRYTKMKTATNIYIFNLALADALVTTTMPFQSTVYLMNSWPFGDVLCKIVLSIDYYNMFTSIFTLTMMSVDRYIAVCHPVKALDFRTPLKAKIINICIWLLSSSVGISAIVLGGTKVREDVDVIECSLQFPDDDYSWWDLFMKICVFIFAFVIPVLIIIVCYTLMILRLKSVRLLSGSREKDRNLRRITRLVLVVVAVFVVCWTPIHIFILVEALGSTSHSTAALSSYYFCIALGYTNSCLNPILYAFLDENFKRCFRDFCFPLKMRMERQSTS
In words: cell-based or functional assay.

B1: Nb39 (active-state stabilizing nanobody) (VHH)
VHH: QVQLVESGGGLVRPGGSLRLSCVDSERTSYPMGWFRRAPGKEREFVASITWSGIDPTYADSVADRFTTSRDVANNTLYLQMNSLKHEDTAVYYCAARAPVGQSSSPYDYDYWGQGTQVTVS
As to B1, the “increase of the binding affinity of nalfurafine in radioligand competition binding on KOR membranes in the presence of Nb39” value came to 40 fold.

Source of the values: publication PMC10008561, “Molecular mechanism of biased signaling at the kappa opioid receptor” (Nature Communications, 2023).
